From publication PMC12658005 (Communications Biology, 2025)

Target: the molecule itself
Assay: cryo-EM structure

B1: F plasmid TraT protein complex (TraT-TS) (natural protein)
chain: CGAMSTAIKKRNLEVKTQMSETIWLEPASERTVFLQIKNTSDKDMSGLQGKIADAVKAKGYQVVTSPDKAYYWIQANVLKADKMDLRESQGWLNRGYEGAAVGAALGAGITGYNSNSAGATLGVGLAAGLVGMAADAMVEDVNYTMITDVQIAERTKATVTTDNVAALRQGTSGAKIQTSTETGNQHKYQTRVVSNANKVNLKFEEAKPVLEDQLAKSIANIL
modifications: lipid anchor on the N-terminal cysteine (density not resolved)
notes: also called TraTF; TraT exclusion protein complex; copies: 10
- stoichiometry N: 10
